Results on three molecules are retold here after publication PMC10825016, “New insights into the structure and function of the complex between the Escherichia coli Hsp70, DnaK, and its nucleotide-exchange factor, GrpE” (The Journal of Biological Chemistry, 2023).

The target in experiment [1] is T1, DnaK nucleotide-binding domain NBD^1–392 T199A (E. coli, UniProt P0A6Y8 1-392, T199A).
T1 construct: Nucleotide free unless specified; Used unlabelled in SPR and 2H-15N labelled or 2H, ILV 13C-methyl labelled in NMR; also called DnaK NBD; wildtype NBD
Kind of experiment: NMR titration; HMQC spectra of 2H, 13C-methyl ILV labelled protein, 25 °C; nucleotide free; 40 μM NBD^1–392 T199A plus 40 μM GrpE or truncated variants, or 60 μM DnaK plus 80 μM GrpE or truncated variants. The note with it: both partners purified.

The target in experiment [2] is T2, Wildtype E. coli full-length DnaK (E. coli, UniProt P0A6Y8 1-638).
T2 construct: Escherichia coli Hsp70 DnaK, wildtype, full length; 2H, ILV 13C-methyl labelled and nucleotide free in the NMR experiments
The experiment is described as above. The following applies: both partners purified.

The target of experiment [3] is DnaK NBD^1–392 Δ285 to 295 (E. coli, UniProt P0A6Y8 1-392, T199A | Δ285 to 295). Kind of experiment: SPR; Biacore T-200, NTA sensor chip activated with Ni2+; N-terminal His-tagged GrpE immobilised; nucleotide-free NBD^1–392 T199A or its variants perfused at diverse concentrations; control without GrpE subtracted; equilibrium and kinetic fits. The note with it: both partners purified. Background: Surface plasmon resonance follows binding to a sensor surface in real time, without labels.

Another experiment deals with DnaK NBD^1–392 Q260R (E. coli, UniProt P0A6Y8 1-392, T199A | Q260R). The experiment is described as above. The note with it: both partners purified.
In a further experiment the target is DnaK NBD^1–392 Y285R (E. coli, UniProt P0A6Y8 1-392, T199A | Y285R). The experiment is described as above. The following applies: both partners purified.
For experiment [4], the target named is T1, DnaK nucleotide-binding domain …. Described as above. The note with it: both partners purified.
Experiment [5] has as its target T2, Wildtype E. coli full-length DnaK. Nature of the experiment: not stated; data not shown; nucleotide-free DnaK/GrpE.

B1: GrpE^69–197 (domain or fragment, E. coli, UniProt P09372 69-197, looked up)
chain: MENLRRRTELDIEKAHKFALEKFINELLPVIDSLDRALEVADKANPDMSAMVEGIELTLKSMLDVVRKFGVEVIAETNVPLDPNVHQAIAMVESDDVAPGNVLGIMQKGYTLNGRTIRAAMVTVAKAKA
notes: lacks the N-terminal disordered tail and a portion of the coiled-coil domain; 2H-labelled for the 1H-15N HSQC experiments; also called truncated GrpE variant; source: E. coli BL21(DE3), purified (Ni-NTA, TEV cleavage, second Ni-NTA)
Take B1: the binding result in experiment [1] and in experiment [2] was “binds” throughout.

B2: N-terminal His-tagged GrpE (natural protein, E. coli, UniProt P09372 1-197, looked up)
chain: MSSKEQKTPEGQAPEEIIMDQHEEIEAVEPEASAEQVDPRDEKVANLEAQLAEAQTRERDGILRVKAEMENLRRRTELDIEKAHKFALEKFINELLPVIDSLDRALEVADKANPDMSAMVEGIELTLKSMLDVVRKFGVEVIAETNVPLDPNVHQAIAMVESDDVAPGNVLGIMQKGYTLNGRTIRAAMVTVAKAKA
notes: Held on the Ni-NTA sensor chip by its His tag in SPR; source: E. coli BL21(DE3), purified (Ni-NTA); not shown: His tag, N-terminal, kept
Turning to B2, the Kd (in general, the free concentration of one partner at which half of the binding sites on the other are occupied at equilibrium, for simple one-to-one binding) in experiment [3] was found to be 440 ± 60 nM; with DnaK NBD^1–392 Q260R, 4.1 ± 0.3 nM; with DnaK NBD^1–392 Y285R, 120 ± 10 nM; in experiment [4], 3.8 ± 0.6 nM. The koff – broadly, the first-order rate constant of dissociation – in experiment [3] came to 0.0158 s⁻¹; with DnaK NBD^1–392 Q260R, 0.0231 s⁻¹; with DnaK NBD^1–392 Y285R it was 0.0178 s⁻¹; in experiment [4], 0.021 s⁻¹. The kon (usually the rate constant with which the complex forms) in experiment [3] came out at 39000 M⁻¹ s⁻¹; with DnaK NBD^1–392 Q260R, 5.6e+06 M⁻¹ s⁻¹; with DnaK NBD^1–392 Y285R it was 24000 M⁻¹ s⁻¹; in experiment [4] it was 5.9e+06 M⁻¹ s⁻¹.

B3: GrpE, full-length wildtype, His tag cleaved (natural protein, E. coli, UniProt P09372 1-197, looked up)
chain: MSSKEQKTPEGQAPEEIIMDQHEEIEAVEPEASAEQVDPRDEKVANLEAQLAEAQTRERDGILRVKAEMENLRRRTELDIEKAHKFALEKFINELLPVIDSLDRALEVADKANPDMSAMVEGIELTLKSMLDVVRKFGVEVIAETNVPLDPNVHQAIAMVESDDVAPGNVLGIMQKGYTLNGRTIRAAMVTVAKAKA
notes: Escherichia coli GrpE, nucleotide-exchange factor of DnaK, wildtype, full length; also called full-length GrpE; wildtype GrpE; source: E. coli BL21(DE3), purified (Ni-NTA, TEV cleavage, second Ni-NTA); not shown: His tag, N-terminal, cleaved
For the molecule B3, the Kd in experiment [5] was 3 nM.
